Measurements published in US9777300 (University of California, dated 2017).

T1: E. coli FhuA, outer membrane iron transporter protein (E. coli, UniProt P06971 34-747)
T1 construct: whole, on cells; also called outer membrane iron-transporter (E. coli)
T1 sequence: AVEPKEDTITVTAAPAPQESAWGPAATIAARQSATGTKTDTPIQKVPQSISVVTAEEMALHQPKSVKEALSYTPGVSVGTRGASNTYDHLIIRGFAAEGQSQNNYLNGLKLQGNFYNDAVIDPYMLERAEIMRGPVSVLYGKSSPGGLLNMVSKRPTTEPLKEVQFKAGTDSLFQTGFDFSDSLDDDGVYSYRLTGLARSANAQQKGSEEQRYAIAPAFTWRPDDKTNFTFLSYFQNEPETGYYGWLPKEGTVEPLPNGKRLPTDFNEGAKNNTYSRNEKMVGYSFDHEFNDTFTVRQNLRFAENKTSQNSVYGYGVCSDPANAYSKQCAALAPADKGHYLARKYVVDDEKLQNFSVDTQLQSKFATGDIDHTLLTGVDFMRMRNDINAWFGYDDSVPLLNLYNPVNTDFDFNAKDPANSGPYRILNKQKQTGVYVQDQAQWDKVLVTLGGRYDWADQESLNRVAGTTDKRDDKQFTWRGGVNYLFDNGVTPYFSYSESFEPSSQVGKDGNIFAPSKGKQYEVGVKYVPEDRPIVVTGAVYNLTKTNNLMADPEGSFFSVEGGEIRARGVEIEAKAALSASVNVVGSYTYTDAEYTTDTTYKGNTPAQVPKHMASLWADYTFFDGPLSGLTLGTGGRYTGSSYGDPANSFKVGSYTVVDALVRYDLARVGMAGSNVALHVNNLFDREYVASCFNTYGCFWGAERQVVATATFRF

B1: Bacteriophage T5 protein pb5 expressed in E. coli with a 6x-His tag (ligand)
chain: MSFFAGKLNNKSILSLRRGSGGDTNQHINPDSQTIFHSDMSHVIITETHSTGLRLDQGAGDYYWSEMPSRVTQLHNNDPNRVVLTEIEFSDGSRHMLSGMSMGVGAKAYGIINPQIMSQGGLKTQITASADLSLDVGYFNTGTSGTIPQKLRDGTGCQHMFGAFSGRRGFASSAMYLGGAALYKSAWSGSGYVVADAGTLTIPSDYVRHPGARNFGFNAIYVRGRSCNRVLYGMEGPNYTTGGAVQGASSSGALNFTYNPSNPESPKYSVGFARADPTNYAYWESMGDPNDSANGPIGIYSEHLGIYPSKITWYVTNLVYNGSGYNIDGGLFNGNDIKLSPREFIIKGVNVNNTSWKFINFIEKNFNVGNRADFRDVGCNLSKDSPSTGISGIATFGLPTTESNNAPSIKGGNVGGLHANVVSIYNFLPSASWYVSSNPPKIGNNYGDVWSENLLPLRLLGGSGSTILSGNIVFQGNGSVHVGTVGLDLNSSRNGAIVCTMEFIDDTWLSAGGIGCFNPTEMLSQGAEYGDSRFRIGGNTINKKLHQILSLPAGEYVPFFTIKGTVVNACKLQAAAYNPTPYWVSGLPGSVGQTGYYTLTYYMRNDGNNNISIWLDSSMSNIIGMKACLPNIKLIIQRLT
notes: it is placed C-terminal here only because of the label 'pb5-His'; also called pb5-His; His-pb5; not shown: 6x-His tag
B2: Qdot-pb5 conjugate (CdSe/ZnS quantum dots conjugated to pb5 by carbodiimide coupling) (other)
chain: MSFFAGKLNNKSILSLRRGSGGDTNQHINPDSQTIFHSDMSHVIITETHSTGLRLDQGAGDYYWSEMPSRVTQLHNNDPNRVVLTEIEFSDGSRHMLSGMSMGVGAKAYGIINPQIMSQGGLKTQITASADLSLDVGYFNTGTSGTIPQKLRDGTGCQHMFGAFSGRRGFASSAMYLGGAALYKSAWSGSGYVVADAGTLTIPSDYVRHPGARNFGFNAIYVRGRSCNRVLYGMEGPNYTTGGAVQGASSSGALNFTYNPSNPESPKYSVGFARADPTNYAYWESMGDPNDSANGPIGIYSEHLGIYPSKITWYVTNLVYNGSGYNIDGGLFNGNDIKLSPREFIIKGVNVNNTSWKFINFIEKNFNVGNRADFRDVGCNLSKDSPSTGISGIATFGLPTTESNNAPSIKGGNVGGLHANVVSIYNFLPSASWYVSSNPPKIGNNYGDVWSENLLPLRLLGGSGSTILSGNIVFQGNGSVHVGTVGLDLNSSRNGAIVCTMEFIDDTWLSAGGIGCFNPTEMLSQGAEYGDSRFRIGGNTINKKLHQILSLPAGEYVPFFTIKGTVVNACKLQAAAYNPTPYWVSGLPGSVGQTGYYTLTYYMRNDGNNNISIWLDSSMSNIIGMKACLPNIKLIIQRLT
modifications: CdSe/ZnS quantum dot (Qdot) coupled by carbodiimide (EDC) chemistry; site of coupling and number of pb5 per Qdot not stated
notes: Two colours were used in the pulse labeling (Qdot532-pb5, Qdot602-pb5); the protein part is the same purified His-tagged pb5; also called Qdot-pb5s; Qdot532-pb5; not shown: 6x-His tag of the purified pb5

Assays:
[1] = biological target: T1, E. coli FhuA, outer membrane iron …; test: fluorescence microscopy, live E. coli cells expressing FhuA, 50 nM His-tagged pb5, detected with fluorescent anti-His antibody
[2] = biological target: T1, E. coli FhuA, outer membrane iron …; test: flow cytometry, FhuA on E. coli cells against FhuA on R. eutropha cells (FIG. 14E)
[3] = biological target: T1, E. coli FhuA, outer membrane iron …; test: flow cytometry titration with 2.5 to 20 nM Qdot-pb5, FhuA on R. eutropha cells against FhuA on E. coli cells (FIG. 19)

| Binder | binding result [1] | fold binding efficiency, E. coli cells against R. eutropha cells [2] | fold lower total binding, R. eutropha cells against E. coli cells [3] |
| --- | --- | --- | --- |
| B1 | binds | – | – |
| B2 | – | ~3.4 fold | ~3.4 times lower |
